Where a chain is given by its changes, count along the chain named. Blank lines part the entries; values can stand above or below the binder they belong to.
What was measured:
[1] = molecular target: T1, rat TrkB monomer (His ECD) (rat, UniProt Q63604 32-429); experiment: SPR (Biacore), TrkB His ECD monomer on chip, 37 C
T1 construct: extracellular domain; amine-coupled to the chip
Description: (§1) TrkB monomers (H is ECD) of human, mouse, and rat were amine-coupled to the chip at levels of 2008, 1008, and 889RU respectively in an effort to give low capacity surfaces suitable for kinetic analysis. Fabs (C1, C2, A2, 4A6, and 4B12) were diluted to 100 nM (according to their labeled concentrations by NanoDrop, using 1AU=0.6 mg/mL) to give the top concentration of a 3 fold serial dilution. Samples were injected from low to high concentration as a titration series for 84 sec, allowing a 10 minute dissociation phase for the 100 nM sample. […] The full-length mouse anti-TrkB antibody 38B8-IgG was used as a (+) control to confirm that the chip was active.
(§2) The concentrations of the Fab proteins are determined by ELISA and/or SDS-PAGE electrophoresis using a Fab of known concentration (as determined by amino acid analysis) as a standard. Kinetic association rates (kₒₙ) and dissociation rates (koff) (generally measured at 25° C. or 37° C.) are obtained simultaneously by fitting the data to a 1:1 Langmuir binding model (Karlsson, R. Roos, H. Fagerstam, L. Petersson, B., 1994 Methods Enzymology 6:99-110) using the BIAevaluation program. Equilibrium dissociation constant (KD) values are calculated as koff/kₒₙ.

[2] = molecular target: T2, mouse TrkB monomer (His ECD) (mouse, UniProt P15209 32-429); experiment: SPR (Biacore), TrkB His ECD monomer on chip, 37 C
T2 construct: extracellular domain; amine-coupled to the chip
Description: as §1, §2

[3] = molecular target: T3, human TrkB monomer (His ECD) (human, UniProt Q16620 32-430); experiment: SPR (Biacore), TrkB His ECD monomer on chip, 37 C
T3 construct: extracellular domain; amine-coupled to the chip
Description: as §1, §2

[4] = molecular target: T4, TrkB (Homo sapiens (Human), UniProt Q16620 32-430); experiment: koff of Fab at 37 C; T1/2=Log2/koff
How it was run: (§3)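 Monovalent Fab fragments were tested at 37° C by surface plasmon resonance on a Biacore instrument, against TrkB extracellular-domain monomer amine-coupled to the chip at low capacity. Fabs were injected low to high as a 3-fold serial dilution from 100 nM for 84 sec, with a 10 minute dissociation after the top sample. The dissociation half-life was calculated from koff, which was fitted to a Langmuir binding model in BIAevaluation. The formula used was T1/2 = Log 2/koff.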

[5] = molecular target: T3, human TrkB monomer (His ECD); experiment: Biacore, 37 C
How it was run: as §3

[6] = molecular target: T4, TrkB; experiment: koff of Fab at 25 C; T1/2=Log2/koff
How it was run: as §3, with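 “25°” for “37°”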

[7] = molecular target: T1, rat TrkB monomer (His ECD); experiment: SPR (Biacore), Fab over amine-coupled TrkB His ECD monomer, 25 C
Description: as §1, §2

[8] = molecular target: T2, mouse TrkB monomer (His ECD); experiment: as above
Description: as §1, §2

[9] = molecular target: T3, human TrkB monomer (His ECD); experiment: as above
Description: as §1, §2

[10] = molecular target: T3, human TrkB monomer (His ECD); experiment: Biacore, 25 C
How it was run: as §3, with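 “25°” for “37°”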

T3 sequence (Q16620 32-430): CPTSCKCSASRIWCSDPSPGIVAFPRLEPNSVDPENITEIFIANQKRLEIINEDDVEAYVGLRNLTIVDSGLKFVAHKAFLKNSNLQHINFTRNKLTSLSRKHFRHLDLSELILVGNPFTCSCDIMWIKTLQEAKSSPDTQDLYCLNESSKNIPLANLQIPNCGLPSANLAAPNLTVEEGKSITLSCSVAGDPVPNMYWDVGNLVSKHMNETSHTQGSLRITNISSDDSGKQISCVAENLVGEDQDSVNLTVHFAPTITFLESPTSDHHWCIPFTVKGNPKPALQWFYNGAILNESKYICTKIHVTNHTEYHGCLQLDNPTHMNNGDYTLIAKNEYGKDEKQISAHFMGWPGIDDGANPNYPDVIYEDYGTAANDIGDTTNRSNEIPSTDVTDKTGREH
T4 sequence (Q16620 32-430 limits assumed): as the sequence (Q16620 32-430) above
T2 sequence (P15209 32-429): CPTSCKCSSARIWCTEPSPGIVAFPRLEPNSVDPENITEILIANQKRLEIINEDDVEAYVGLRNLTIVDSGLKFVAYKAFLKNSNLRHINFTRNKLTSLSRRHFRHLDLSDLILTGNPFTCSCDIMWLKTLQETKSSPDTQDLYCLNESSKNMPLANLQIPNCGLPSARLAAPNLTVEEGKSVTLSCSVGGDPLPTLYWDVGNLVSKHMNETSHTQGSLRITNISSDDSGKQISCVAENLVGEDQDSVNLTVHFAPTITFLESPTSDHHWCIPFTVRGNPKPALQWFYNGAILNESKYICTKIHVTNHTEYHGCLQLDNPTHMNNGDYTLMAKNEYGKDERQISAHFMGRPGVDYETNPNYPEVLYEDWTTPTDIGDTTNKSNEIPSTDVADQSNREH
T1 sequence (Q63604 32-429): as the sequence (P15209 32-429) above, with T3M, S9T, A10T, V32I, R63K, S84G, M153T, L185I, S394T counted along it

Kd [1]: 4 nM
koff [1]: 0.00924 s⁻¹
kon [1]: 1.41e+06 M⁻¹ s⁻¹
Kd [2]: 2.27 nM
koff [2]: 0.00396 s⁻¹
kon [2]: 1.75e+06 M⁻¹ s⁻¹
Kd [3]: 1.27 nM
koff [3]: 0.00255 s⁻¹
kon [3]: 2e+06 M⁻¹ s⁻¹
T1/2 [4]: 4.5 min
T1/2 [5]: 4.53 min
B1: RN1026A (Fab, V domains shown)
VH: QVQLVQSGAEVKKPGASVKVSCKASGYTFTNYDIIWVRQAPGQGLEWMGYINPYNRRREYNEKFKGRVTMTRDTSTSTVYMELSSLRSEDTAVYYCARLLKYRRFRYYAIDYWGQGTTVTVSS
VL: DIQMTQSPSSLSASVGDRVTITCRASENVYSNLAWYQQKPGKAPKLLIYAASNLQSGVPSRFSGSGSGTDFTFTISSLQPEDIATYYCQHFWGSPFTFGQGTKLEIK
notes: Fab

kon [1]: 1.36e+06 M⁻¹ s⁻¹
Kd [2]: 0.37 nM
koff [2]: 0.00066 s⁻¹
kon [2]: 1.76e+06 M⁻¹ s⁻¹
Kd [3]: 0.17 nM
koff [3]: 0.000372 s⁻¹
kon [3]: 2.14e+06 M⁻¹ s⁻¹
T1/2 [6]: 13.2 min
Kd [7]: 0.27 nM
koff [7]: 0.000666 s⁻¹
kon [7]: 2.45e+06 M⁻¹ s⁻¹
Kd [8]: 0.02 nM
koff [8]: 9.24e-05 s⁻¹
kon [8]: 4.35e+06 M⁻¹ s⁻¹
Kd [9]: 0.18 nM
koff [9]: 0.000705 s⁻¹
kon [9]: 3.89e+06 M⁻¹ s⁻¹
B2: 4A6 (Fab, V domains shown)
VH: B1 VH
VL: B1 VL with R24H, F71Y
notes: Fab

T1/2 [6]: 1.7 min
B3: T1-HuC1 (Fab, V domains shown)
VH: B1 VH with R56D, R57G, R58T, E59K, R106S
VL: B1 VL with Q55A, S56D, G93Y
notes: Fab

T1/2 [6]: 4 min
B4: A6-10 (Fab, V domains shown)
VH: B1 VH with R57G
VL: B1 VL with R24H, F71Y
notes: Fab

T1/2 [6]: 6 min
Kd [7]: 1.18 nM
koff [7]: 0.00152 s⁻¹
kon [7]: 1.29e+06 M⁻¹ s⁻¹
Kd [8]: 0.51 nM
koff [8]: 0.000636 s⁻¹
kon [8]: 1.24e+06 M⁻¹ s⁻¹
Kd [9]: 1.08 nM
koff [9]: 0.00145 s⁻¹
kon [9]: 1.34e+06 M⁻¹ s⁻¹
B5: A2 (Fab, V domains shown)
VH: B1 VH with R56D, R57G, R58T, E59K
VL: B1 VL with F71Y, G93Y, F96W
notes: Fab

T1/2 [6]: 11.8 min
B6: A6-9 (Fab, V domains shown)
VH: B1 VH with R56D, E59R
VL: B1 VL with R24H, F71Y
notes: Fab

T1/2 [6]: 2.9 min
T1/2 [10]: 2.9 min
Kd [7]: 2.29 nM
koff [7]: 0.00146 s⁻¹
kon [7]: 638000 M⁻¹ s⁻¹
Kd [8]: 1.44 nM
koff [8]: 0.000734 s⁻¹
kon [8]: 510000 M⁻¹ s⁻¹
Kd [9]: 2.54 nM
koff [9]: 0.0014 s⁻¹
kon [9]: 552000 M⁻¹ s⁻¹
B7: C2 (Fab, V domains shown)
VH: B1 VH with R56D, R57G, R58T, E59K
VL: B1 VL with A25T, F71Y
notes: Fab

T1/2 [6]: 9.9 min
B8: A6-11 (Fab, V domains shown)
VH: B1 VH with R58T
VL: B1 VL with R24H, F71Y
notes: Fab

T1/2 [6]: 12.8 min
Kd [7]: 0.41 nM
koff [7]: 0.00081 s⁻¹
kon [7]: 1.99e+06 M⁻¹ s⁻¹
Kd [8]: 0.06 nM
koff [8]: 0.000146 s⁻¹
kon [8]: 2.38e+06 M⁻¹ s⁻¹
Kd [9]: 0.21 nM
koff [9]: 0.000532 s⁻¹
kon [9]: 2.5e+06 M⁻¹ s⁻¹
B9: 4B12 (Fab, V domains shown)
VH: B1 VH with R56G
VL: B1 VL with N28P, L33V, F71Y
notes: Fab

Reference: US20100196390A1 (RINAT NEUROSCIENCE, published 2010)
